The target of this assay is endogenous LC3 (MCF10A cells), Q9GZQ8. Briefly: co-immunoprecipitation (Flag-Trap), immunoblot. To be noted: chain shown with the change; BafA1-treated MCF10A cells; parent: 1.0.

Numbering of substitutions follows the chain as printed. Numbers in names are those of the source.

B1: wild-type Flag-CTNNA1 (in MCF10A cells), P35221 Y419A; V422A; L897A; F900A (protein)
chain: MTAVHAGNINFKWDPKSLEIRTLAVERLLEPLVTQVTTLVNTNSKGPSNKKRGRSKKAHVLAASVEQATENFLEKGDKIAKESQFLKEELVAAVEDVRKQGDLMKAAAGEFADDPCSSVKRGNMVRAARALLSAVTRLLILADMADVYKLLVQLKVVEDGILKLRNAGNEQDLGIQYKALKPEVDKLNIMAAKRQQELKDVGHRDQMAAARGILQKNVPILYTASQACLQHPDVAAYKANRDLIYKQLQQAVTGISNAAQATASDDASQHQGGGGGELAYALNNFDKQIIVDPLSFSEERFRPSLEERLESIISGAALMADSSCTRDDRRERIVAECNAVRQALQDLLSEYMGNAGRKERSDALNSAIDKMTKKTRDLRRQLRKAVMDHVSDSFLETNVPLLVLIEAAKNGNEKEVKEAAQAFREHANKLIEVANLACSISNNEEGVKLVRMSASQLEALCPQVINAALALAAKPQSKLAQENMDLFKEQWEKQVRVLTDAVDDITSIDDFLAVSENHILEDVNKCVIALQEKDVDGLDRTAGAIRGRAARVIHVVTSEMDNYEPGVYTEKVLEATKLLSNTVMPRFTEQVEAAVEALSSDPAQPMDENEFIDASRLVYDGIRDIRKAVLMIRTPEELDDSDFETEDFDVRSRTSVQTEDDQLIAGQSARAIMAQLPQEQKAKIAEQVASFQEEKSKLDAEVSKWDDSGNDIIVLAKQMCMIMMEMTDFTRGKGPLKNTSDVISAAKKIAEAGSRMDKLGRTIADHCPDSACKQDLLAYLQRIALYCHQLNICSKVKAEVQNLGGELVVSGVDSAMSLIQAAKNLMNAVVQTVKASYVASTKYQKSQGMASLNLPAVSWKMKAPEKKPLVKREKQDETQTKIKRASQKKHVNPVQAASEAKAMDSI
Consider B1, for which the ratio to parent is 0.29.

B2: wild-type Flag-CTNNA1 (in MCF10A cells), P35221 L897A; F900A (protein)
chain: B1 chain with A419Y, A422V
Regarding B2, the ratio to parent amounted to 0.22.

B3: wild-type Flag-CTNNA1 (in MCF10A cells), P35221 Y419A; V422A (protein)
chain: B1 chain with A897L, A900F
Take B3: the ratio to parent is 0.23.

Values taken from article PMC7969950.
